Test results from patent US20250144214A1 (US Dept. of Health and Human Services, published 2025).
Changes are numbered by the printed parent chain.

T1: glypican-2 (GPC2), as used in the binding affinity test (UniProt Q8N158 24-553, limits assumed)
T1 construct: It states neither the form of the antigen nor the assay
T1 sequence (looked up): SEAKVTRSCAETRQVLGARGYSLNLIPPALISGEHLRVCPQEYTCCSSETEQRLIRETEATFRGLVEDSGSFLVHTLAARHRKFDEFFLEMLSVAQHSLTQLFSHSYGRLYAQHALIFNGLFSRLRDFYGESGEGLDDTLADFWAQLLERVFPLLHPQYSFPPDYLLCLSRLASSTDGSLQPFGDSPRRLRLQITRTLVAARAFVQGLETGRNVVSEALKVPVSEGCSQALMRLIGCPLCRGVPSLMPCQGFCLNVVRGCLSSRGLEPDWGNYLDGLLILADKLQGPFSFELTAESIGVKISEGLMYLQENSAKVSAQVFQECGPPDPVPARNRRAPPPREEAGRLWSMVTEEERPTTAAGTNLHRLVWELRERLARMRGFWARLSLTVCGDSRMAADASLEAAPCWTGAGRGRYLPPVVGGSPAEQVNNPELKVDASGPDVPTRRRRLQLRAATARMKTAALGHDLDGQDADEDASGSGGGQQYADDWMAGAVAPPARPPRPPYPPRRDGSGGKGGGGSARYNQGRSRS

B1: hCT3-2 (humanized CT3 antibody) (antibody, V domains shown)
VH: QVQLVQSGAEVKKPGASVKVSCKASRFTFTDYNIHWVRQAPGQRLEWIGYINPNNGDIFYKQKFNGRVTITRDTSASTAYMELSSLRSEDTAVYYCVRSSNIRYTFDRFFDVWGQGTLVTVS
VL: DVVMTQSPAFLSVTPGEKVTITCRASSSVNYIYWYQQKPDQAPKLWIYYTSNLAPGVPSRFSGSGSGTDFTFTISSLEAEDAATYYCQQFSSSPSTFGQGTKLEIK
B2: hCT3-4 (humanized CT3 antibody) (antibody, V domains shown)
VH: B1 VH
VL: EIVLTQSPATLSLSPGERATLSCRASSSVNYIYWYQQKPGQAPRLWIYYTSNLAPGIPARFSGSGSGTDFTLTISSLEPEDFAVYYCQQFSSSPSTFGQGTKLEIK
B3: hCT3-3 (humanized CT3 antibody) (antibody, V domains shown)
VH: B1 VH with R44G, R67K, V68A, I70M, R72V, A76T, A79V
VL: DIQMTQSPSSLSASVGDRVTITCRASSSVNYIYWYQQKSGKAPKLWIYYTSNLAPGVPSRFSGSGSGTDFTLTISSLQPEDFATYYCQQFSSSPSTFGQGTKLEIK
B4: CT3 antibody (parental murine GPC2-specific monoclonal antibody) (antibody, V domains shown)
VH: EVQLQQSGPELVKPGASVKMSCKASRFTFTDYNIHWVKQSPGKTLEWIGYINPNNGDIFYKQKFNGKATLTINKSSNTAYMELRSLTSEDSAVYYCVRSSNIRYTFDRFFDVWGTGTTVTVSS
VL: ENVLTQSPAIMSASLGEKVTMSCRASSSVNYIYWYQQKSDASPKLWIYYTSNLAPGVPARFSGSGSGNSYSLTISSMEGEDAATYYCQQFSSSPSTFGTGTKLELK
notes: also called parental CT3 antibody; murine antibody CT3
B5: hCT3-1 (humanized CT3 antibody) (antibody, V domains shown)
VH: QVQLVQSGAEVKKPGASVKVSCKASRFTFTDYNIHWVRQAPGQGLEWIGYINPNNGDIFYKQKFNGRVTLTADKSTSTAYMELSSLTSEDTAVYYCVRSSNIRYTFDRFFDVWGQGTLVTVSS
VL: DVVMTQSPLSLPVTPGEPASISCRASSSVNYIYWYLQKPGQSPQLWIYYTSNLAPGVPDRFSGSGSGTDFTLKISRVEAEDVGVYYCQQFSSSPSTFGQGTKLEIK

Each binder was assayed against T1, glypican-2 (GPC2), as used in the … (assay: binding affinity for GPC2; method not stated (graphs in FIGS. 7A-7B)).

In order of falling binding affinity:
1. B5  4 nM
2. B1  3.6 nM
3. B2  3.3 nM
4. B3  2.5 nM
5. B4  2.2 nM

Each binder was assayed against T1, glypican-2 (GPC2), as used in the … (assay: sensorgrams, Response (nm) against Time (unit inferred), traces at 200, 100 and 50 nM; instrument and immobilised partner not stated).

In order of falling Kd:
1. B5  4 nM
2. B1  3.6 nM

Target: T1, glypican-2 (GPC2), as used in the …
Test: as above
Remark: another data set of the same source

In order of rising Kd:
1. B3  2.5 nM
2. B2  3.3 nM
